Results taken from patent publication US20090304719A1 (University of California, published 2009).
Bridges are numbered along the chain shown (N, C = ends). Where no end group is shown, it is not given here. CPX = display scaffold, circularly permuted E. coli OmpX, fused C-terminal

Tests used:
[1] = target: T1, VEGF (UniProt P15692-4 27-191, limits assumed, biotinylated in the FACS assays (sites not given)); assay: FACS, clone displayed on E. coli (CPX), labeled VEGF; with MMP-2 against without (FIG. 23)
T1 construct: Species and isoform are never stated; also called labeled VEGF; biotinylated VEGF
Method: (§1) In experiments involving addition of enzyme, 30 nM MMP-2 was included in the Tris-Cl buffer (no enzyme added to the control reaction), and the reaction mixture was incubated at room temperature for 2 hours. Cells were then removed and diluted 1:100 in PBS (pH 7.4) to stop the reaction, pelleted by centrifugation, and resuspended in 30 microliters of refrigerated PBS containing 25 nM biotinylated VEGF. After incubation in the refrigerator on a rotary shaker for 45 minutes, cells were pelleted at 4° C. and resuspended in refrigerated PBS containing 50 nM Streptavidin-Phycoerythrin fluorescent conjugate. After incubation in the refrigerator on a rotary shaker for 45 minutes, cells were pelleted at 4° C. and resuspended in PBS and red fluorescence was measured for analysis or sorting on a FACSAria cell sorter. The fluorescence of cells treated with enzyme was compared to control samples to determine the increase in VEGF binding.
(§2) In an additional experiment, the fluorescence values for a cysteine constrained loop structure were determined in the presence and absence of MMP-2 and compared with the fluorescence values for library clones 4.2A.11 (a.k.a. 4-2A-11) and 2.3B.5 (a.k.a. 2-3B-5) in the presence and absence of MMP-2.

[2] = target: T1, VEGF; assay: FACS, ABP displayed on E. coli (CPX), labeled VEGF; MMP-2 treated against untreated
Method: as §1

[3] = target: T1, VEGF; assay: FACS, construct displayed on E. coli (CPX), labeled VEGF; treated against untreated
[4] = target: T1, VEGF; assay: FACS, construct displayed on E. coli (CPX), labeled VEGF; with MMP-2 against without (FIG. 23)
Method: as §1, §2

[5] = target: T1, VEGF; assay: Kd,app of VEGF binding to the construct displayed on E. coli, with MMP-2 against without (FIG. 13)
[6] = target: T2, UC4F10-11 hamster anti-mouse CTLA4 antibody; assay: bacterial display screening against anti-CTLA4 antibody; assay for this peptide not detailed
T2 construct: Whole antibody, biotinylated or Dylight-labeled in the sorts; also called mouse anti-CTLA4 antibody (clone UC4 F10-1); anti-CTLA4

[7] = target: T3, anti-VEGF scFv TBM; assay: FACS, peptide displayed on bacteria, anti-VEGF scFv; clones selected with labeled ranibizumab
T3 construct: The design included a His6 tag at the N-terminus and a TEV site; also called anti-VEGF single chain Fv
Method: Ranibizumab was used to screen a pooled random peptide library, consisting of peptides that are X₁₅ (8.3×10⁹), X₄CX₇CX₄ (3.6×10⁹), or X₁₂CX₃ (1.1×10⁹), where X is any amino acid and the number represents the total diversity of the library. The total diversity of the pooled library was 1.3×10¹⁰. The screening consisted of one round of MACS and […] of FACS sorting. […] In the first FACS screen, positive cells isolated in the MACS screen were probed with 500 nM biotinylated-ranibizumab, and visualized with neutrAvidin-PE (Molecular Probes, Eugene, Oreg.). The second and third rounds of FACS selections were done with 500 nM and then 100 nM Alexa-labeled ranibizumab in the presence of 20 uM IgG. Individual clones were sequenced and subsequently verified for their ability to bind anti-VEGF scfv by FACS analysis.

[8] = target: T1, VEGF; assay: Kd,app of VEGF binding to the clone displayed on E. coli, with MMP-2 against without (FIG. 14)
[9] = target: T1, VEGF; assay: FACS, construct displayed on E. coli (CPX), labeled VEGF; MMP-2 treated against untreated (FIG. 25)
Method: as §1

[10] = target: T1, VEGF; assay: SPR (Biacore), VEGF amine-coupled to a CM5 chip, soluble MBP fusion injected with and without 30 nM MMP-2 (FIG. 27)
Method: VEGF was immobilized to the Biacore™ CM5 sensor chip surface using the standard amine coupling kit. An NHS/EDC mixture was injected first to activate the surface using the surface preparation wizard in the Biacore™ software. Then, 25 ug/mL concentration of VEGF was injected until the desired immobilization amount was reached (typically ˜5000 response units). The surface is then blocked with ethanolamine. A control reaction was performed on another surface with NHS/EDC then Ethanolamine.
After the VEGF is covalently immobilized, the maltose-binding protein (MBP) fusions of VEGF binding or VEGF binding ABP clones were injected over both the VEGF surface and the control surface. Injections were typically for 1 minute, with a few minutes of dissociation time after each injection. The clones were injected both with and without 30 nM MMP-2 enzyme. For analysis, the signal on the VEGF surface minus the signal on the control surface is the binding response (in RU).

T3 sequence (scFv, as listed by the source): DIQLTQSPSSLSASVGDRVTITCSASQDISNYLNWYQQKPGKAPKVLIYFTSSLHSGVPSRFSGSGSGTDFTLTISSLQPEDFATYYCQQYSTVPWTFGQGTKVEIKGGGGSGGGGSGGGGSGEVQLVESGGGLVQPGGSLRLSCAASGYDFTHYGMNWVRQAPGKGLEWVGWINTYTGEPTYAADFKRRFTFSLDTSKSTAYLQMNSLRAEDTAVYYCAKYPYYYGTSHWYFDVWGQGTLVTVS
T1 sequence (P15692 other isoform, or with tags, fused parts or gaps limits assumed): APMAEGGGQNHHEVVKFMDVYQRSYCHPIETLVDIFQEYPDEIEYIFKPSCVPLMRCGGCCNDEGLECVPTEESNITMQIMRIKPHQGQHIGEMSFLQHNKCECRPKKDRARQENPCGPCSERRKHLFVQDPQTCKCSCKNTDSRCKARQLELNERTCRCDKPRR
T2 sequence (VH, as listed by the source limits assumed, chain 1 of 2): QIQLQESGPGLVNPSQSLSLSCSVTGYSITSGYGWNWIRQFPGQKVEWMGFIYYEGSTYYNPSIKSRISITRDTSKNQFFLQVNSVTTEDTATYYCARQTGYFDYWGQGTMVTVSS
T2 sequence (VL, as listed by the source limits assumed, chain 2 of 2): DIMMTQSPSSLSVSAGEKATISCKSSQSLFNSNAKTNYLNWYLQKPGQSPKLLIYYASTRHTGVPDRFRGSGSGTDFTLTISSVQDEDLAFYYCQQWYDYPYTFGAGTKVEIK

B1: ABP library clone 4-2A-11 (designed binder)
chain: GQSGQGEDEEGPLGLAGGGSGNFGYGKWEWDYGKWLEKVGGG
notes: not shown: CPX display scaffold (circularly permuted E. coli OmpX), fused C-terminal of the ABP
[1]
  fold increase in fluorescence in the presence of MMP-2: ~5.7 fold

B2: cysteine constrained loop ABP (designed binder)
chain: GQSGQGCGSGPLGLAGGGSGNFGYGKWEWDYGKWLEKVGGC-{CPX}
modifications: disulfide 7-41 (inferred); also: fused C-terminal to CPX display scaffold, letters not given here
notes: Tested untreated, after MMP-2 treatment and after DTT reduction; also called cysteine constrained parent; cysteine constrained loop structure; not shown: CPX display scaffold (circularly permuted E. coli OmpX), fused C-terminal of the ABP
[2]
  fold increase in fluorescence after MMP-2 treatment: ~2.6 fold
[3]
  fold switching activity: 2 fold
[4]
  fold increase in fluorescence in the presence of MMP-2: ~3 fold
[5]
  fold improvement in Kd,app in the presence of MMP-2: ~3.4 fold

B3: Negative control MM (does not bind anti-CTLA4) (peptide)
peptide: PCSEWQSMVQPRCYY
notes: also called MMneg
[6]
  binding result: no binding

B4: JS311 (peptide)
peptide: VHAWEQLVIQELYHC
notes: also called 311 MM
[7]
  binding result: binds

B5: JS306 (peptide)
peptide: PCSEWQSMVQPRCYYGG
[7]
  binding result: binds

B6: ABP library clone 2-2A-5 (designed binder)
chain: GQSGQPEWGCGPLGLAGGGSGNFGYGKWEWDYGKWLEKVGGC-{CPX}
modifications: disulfide 10-42 (inferred); also: fused C-terminal to CPX display scaffold, letters not given here
notes: Tested untreated, after MMP-2 and after DTT; not shown: CPX display scaffold (circularly permuted E. coli OmpX), fused C-terminal of the ABP
[8]
  fold improvement in Kd,app in the presence of MMP-2: ~4.8 fold

B7: JS315 (peptide)
peptide: GAMACYNIFEYWCSAMK
notes: also called 315 MM
[7]
  binding result: binds

B8: JS313 (peptide)
peptide: GVGLCYTILEQWCEMGR
notes: also called 313 MM
[7]
  binding result: binds

B9: GS control (designed binder)
chain: GQSGQGGSGGSGGSGGSGGSPLGLAGGGSGNFGYGKWEWDYGKWLEKVGGG
modifications: also: fused C-terminal to CPX display scaffold, letters not given here
notes: Control lacking the cysteine-cysteine disulfide bond; also called GS control polypeptide; not shown: CPX display scaffold (circularly permuted E. coli OmpX), fused C-terminal of the construct
[9]
  fold increase in fluorescence after enzyme cleavage: < 2 fold

B10: maltose-binding protein (MBP) fusion of ABP clone 2.3B.5 (designed binder, not shown: large carriers; small tags and cut ends)
chain: CEYAFGPLGLAGGGSGNFGYGKWEWDYGKWLEKVGGC
modifications: also: fusion with maltose-binding protein (order not certain), disulfide Cys1–C-terminal Cys possible
notes: Soluble protein; the order MBP then ABP is my reading and is not certain; also called 2.3B.5 (2-3B-5) fusion; MBP-ABP fusion
[10]
  fold increase in binding response in the presence of MMP-2: ~4 fold

B11: JS292 (peptide)
peptide: GHGMCYTILEDHCDRVR
notes: also called 292 MM
[7]
  binding result: binds

B12: JS283 (peptide)
peptide: ATAVWNSMVKQSCYMQG
notes: also called 283 MM
[7]
  binding result: binds

B13: JS314 (peptide)
peptide: RPPCCRDYSILECCKSD
[7]
  binding result: binds

B14: JS308 (peptide)
peptide: NVECCQNYNLWNCCGGR
notes: also called 308 MM
[7]
  binding result: binds
